# Experimental data: article PMC7583315, “Disruptive natural selection by male reproductive potential prevents underexpression of protein-coding genes on the human Y chromosome as a self-domestication syndrome”
# Target: T1, TBP (TATA-binding protein) (human, UniProt P20226 1-339)
# Assay: EMSA; 2 nM TBP; EMSA with 2 nM TBP and varied ODN concentrations; Kd from reaction rates vs ODN concentration (GraphPad Prism 5); buffer, salt, pH and temperature not given in
# Details: protein: recombinant; blunt
# T1 sequence (P20226 whole entry): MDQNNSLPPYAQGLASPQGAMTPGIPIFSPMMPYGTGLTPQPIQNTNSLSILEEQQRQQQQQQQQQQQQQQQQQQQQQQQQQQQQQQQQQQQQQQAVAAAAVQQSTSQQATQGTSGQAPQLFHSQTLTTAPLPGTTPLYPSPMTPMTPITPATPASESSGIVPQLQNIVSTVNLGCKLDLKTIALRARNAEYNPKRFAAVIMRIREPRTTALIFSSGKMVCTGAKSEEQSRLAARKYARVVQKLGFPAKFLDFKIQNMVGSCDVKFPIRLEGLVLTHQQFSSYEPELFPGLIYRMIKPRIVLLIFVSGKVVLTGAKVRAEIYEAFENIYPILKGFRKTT
# TBP, sequence (P20226 whole entry): as above
row,Molecule,Kd [nM]
1,ZFY -56T (minor) (dsDNA) DNA 1: GGCGGAGGGGGCCTAACTACCATCCC DNA 2: GGGATGGTAGTTAGGCCCCCTCCGCC,2000 ± 1000
2,GTPBP6 -24G (rs1393008234 WT) (dsDNA) DNA 1: ATCACGAGCACGTGATGAGGAGCGGC DNA 2: GCCGCTCCTCATCACGTGCTCGTGAT,1500 ± 200
3,ASMT -30G (rs1402972626 WT) (dsDNA) DNA 1: GGTGACCTTTTGTGCCCAGAATAGGT DNA 2: ACCTATTCTGGGCACAAAAGGTCACC,600 ± 300
4,ASMT -30A (rs1402972626 minor) (dsDNA) DNA 1: GGTGACCTTTTGTACCCAGAATAGGT DNA 2: ACCTATTCTGGGTACAAAAGGTCACC,1000 ± 300
5,"CDY2A -24 WT (printed -24G, sequence has T) (dsDNA) DNA 1: AGAATGTTCCATATAATCGTCATAGC DNA 2: GCTATGACGATTATATGGAACATTCT",160 ± 30
6,"CDY2A -24 minor (printed -24t, sequence has C) (dsDNA) DNA 1: AGAATGTTCCATACAATCGTCATAGC DNA 2: GCTATGACGATTGTATGGAACATTCT",500 ± 200
7,GTPBP6 -24T (rs1393008234 minor) (dsDNA) DNA 1: ATCACGAGCACGTTATGAGGAGCGGC DNA 2: GCCGCTCCTCATAACGTGCTCGTGAT,1400 ± 200
8,ZFY -56C (WT) (dsDNA) DNA 1: GGCGGAGGGGGCCCAACTACCATCCC DNA 2: GGGATGGTAGTTGGGCCCCCTCCGCC,1000 ± 400

# Target: TBP (Homo sapiens) (UniProt P20226)
# Assay: not given
# Details: cited from earlier work
row,Molecule,Kd [nM]
1,TBP (from UniProt P20226),4

# Target: T1, TBP (TATA-binding protein)
# Assay: EMSA; 2 nM TBP; Kd from association kinetics; EMSA with 2 nM TBP and varied ODN concentrations; Kd from reaction rates vs ODN concentration (GraphPad Prism 5); buffer, salt, pH and temperature not given in
# Details: protein: recombinant; blunt
row,Molecule,Kd [nM]
1,SHOX -45G (rs1452787381 minor) (dsDNA) DNA 1: GAGGTCGCCGCGTGTAAATAGTGAGA DNA 2: TCTCACTATTTACACGCGGCGACCTC,260 ± 70
2,SHOX -45A (rs1452787381 WT) (dsDNA) DNA 1: GAGGTCGCCGCGTATAAATAGTGAGA DNA 2: TCTCACTATTTATACGCGGCGACCTC,39 ± 7
